Biological target: T1, MKK4-V1 (full length MKK4 fused to the V1 fragment of Venus YFP) (UniProt P45985 1-399)
T1 construct: source: HeLa, transfected, in live cells; not shown: Venus YFP fragment V1, C-terminal, kept
T1 sequence (looked up): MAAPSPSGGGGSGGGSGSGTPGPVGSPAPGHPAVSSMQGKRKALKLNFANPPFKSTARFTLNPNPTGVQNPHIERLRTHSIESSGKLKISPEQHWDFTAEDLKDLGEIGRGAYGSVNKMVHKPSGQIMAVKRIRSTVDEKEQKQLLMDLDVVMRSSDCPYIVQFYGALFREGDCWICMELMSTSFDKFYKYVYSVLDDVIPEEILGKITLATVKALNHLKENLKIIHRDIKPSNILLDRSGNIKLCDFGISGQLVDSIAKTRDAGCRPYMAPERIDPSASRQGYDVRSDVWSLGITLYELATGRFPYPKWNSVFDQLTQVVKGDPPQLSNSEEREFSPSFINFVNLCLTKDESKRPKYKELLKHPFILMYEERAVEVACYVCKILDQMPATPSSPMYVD
Experiment: split reporter (BiFC, NanoBiT); competitive PCA in HeLa cells: MKK-V1 and TRIB-V2 co-transfected with an increasing dose of an untagged competitor plasmid (ERK, p38 or TRIB); mean fluorescence by flow cytometry 24 h after transfection; doses are plasmid amounts relative to TRIB-V2
Conditions: partners not purified

fold affinity to MKK4 relative to TRIB2: ~15 fold
B1: untagged TRIB-3 (natural protein, UniProt Q96RU7 1-358, looked up)
chain: MRATPLAAPAGSLSRKKRLELDDNLDTERPVQKRARSGPQPRLPPCLLPLSPPTAPDRATAVATASRLGPYVLLEPEEGGRAYQALHCPTGTEYTCKVYPVQEALAVLEPYARLPPHKHVARPTEVLAGTQLLYAFFTRTHGDMHSLVRSRHRIPEPEAAVLFRQMATALAHCHQHGLVLRDLKLCRFVFADRERKKLVLENLEDSCVLTGPDDSLWDKHACPAYVGPEILSSRASYSGKAADVWSLGVALFTMLAGHYPFQDSEPVLLFGKIRRGAYALPAGLSAPARCLVRCLLRREPAERLTATGILLHPWLRQDPMPLAPTRSHLWEAAQVVPDGLGLDEAREEEGDREVVLYG
notes: TRIB3, untagged expression plasmid; also called unlabelled tribbles; untagged tribbles; source: HeLa, transfected, in live cells
